Target: T1, CD81 (UniProt P60033 1-236, limits assumed)
T1 construct: whole, on cells; also called CD81 receptor
T1 sequence (looked up): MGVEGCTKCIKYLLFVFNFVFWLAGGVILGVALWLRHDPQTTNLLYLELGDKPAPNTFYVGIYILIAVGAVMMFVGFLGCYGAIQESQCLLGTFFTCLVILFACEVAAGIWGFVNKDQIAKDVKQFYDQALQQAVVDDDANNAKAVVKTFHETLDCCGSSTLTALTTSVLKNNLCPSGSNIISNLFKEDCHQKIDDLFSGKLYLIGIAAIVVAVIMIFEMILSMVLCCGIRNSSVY
Experiment: cell ELISA;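 note: antibody binding to HuH7 cells expressing CD81 versus a CD81-negative HuH7 control line, bound antibody detected by secondary reagent, absorbance at 450 nm with 620 nm reference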

B1: CD81K04 HC GG-02-hVH_1_69 / LC GG-02-hVK_4_1 (antibody, V domains shown)
VH: QVQLVQSGAEVKKPGSSVKVSCKASGYTFSSSWMNWVRQAPGQGLEWMGRIYSGDGDAIYNQKFQGRVTITADESTSTAYMELSSLRSEDTAVYYCAREGKTGDLLLRSWGQGTLVTVSS
VL: DIVMTQSPDSLAVSLGERATINCKSSKSVSTSIYSYMHWYQQKPGQPPKLLIYYASYRESGVPDRFSGSGSGTDFTLTISSLQAEDVAVYYCQHSREFPFTFGQGTKLEIK
notes: human constant region
  ELISA data: 0.22

B2: CD81K04 HC GG-02-hVH_1_69 / LC GG-03-hVK_4_1 (antibody, V domains shown)
VH: QVQLVQSGAEVKKPGSSVKVSCKASGYTFSSSWMNWVRQAPGQGLEWMGRIYSGDGDAIYNQKFQGRVTITADESTSTAYMELSSLRSEDTAVYYCAREGKTGDLLLRSWGQGTLVTVSS
VL: DIVMTQSPDSLAVSLGERATINCKSSKSVSTSIYSYLAWYQQKPGQPPKLLIYYASYRESGVPDRFSGSGSGTDFTLTISSLQAEDVAVYYCQHSREFPFTFGQGTKLEIK
notes: human constant region
  ELISA data: 0.142

B3: CD81K04 HC GG-02-hVH_1_69 / LC GG-04-hVK_4_1 (antibody, V domains shown)
VH: QVQLVQSGAEVKKPGSSVKVSCKASGYTFSSSWMNWVRQAPGQGLEWMGRIYSGDGDAIYNQKFQGRVTITADESTSTAYMELSSLRSEDTAVYYCAREGKTGDLLLRSWGQGTLVTVSS
VL: DIVMTQSPDSLAVSLGERATINCKSSKSVSTSIYSYLAWYQQKPGQPPKLLIYYASTRESGVPDRFSGSGSGTDFTLTISSLQAEDVAVYYCQHSREFPYTFGQGTKLEIK
notes: human constant region
  ELISA data: 0.075

B4: CD81K04 HC GG-02-hVH_1_69 / LC JA_GG-08-hVK_4_1 (antibody, V domains shown)
VH: QVQLVQSGAEVKKPGSSVKVSCKASGYTFSSSWMNWVRQAPGQGLEWMGRIYSGDGDAIYNQKFQGRVTITADESTSTAYMELSSLRSEDTAVYYCAREGKTGDLLLRSWGQGTLVTVSS
VL: DIVMTQSPDSLAVSLGERATINCKSSKSVSTSIYSYMHWYQQKPGQPPKLLIKYASYLESGVPDRFSGSGSGTDFTLTISSLQAEDVAVYYCEHSREFPFTFGQGTKLEIK
notes: human constant region
  ELISA data: 0.792

B5: CD81K04 HC GG-02-hVH_1_69 / LC JA_GG-09-hVK_4_1 (antibody, V domains shown)
VH: QVQLVQSGAEVKKPGSSVKVSCKASGYTFSSSWMNWVRQAPGQGLEWMGRIYSGDGDAIYNQKFQGRVTITADESTSTAYMELSSLRSEDTAVYYCAREGKTGDLLLRSWGQGTLVTVSS
VL: DIVMTQSPDSLAVSLGERATINCKSSKSVSTSIYSYMHWYQQKPGQPPKLLIKYASTRESGVPDRFSGSGSGTDFTLTISSLQAEDVAVYYCEHSREFPFTFGQGTKLEIK
notes: human constant region
  ELISA data: 0.783

B6: CD81K04 HC GG-02-hVH_1_69 / LC JA_GG-10-hVK_4_1 (antibody, V domains shown)
VH: QVQLVQSGAEVKKPGSSVKVSCKASGYTFSSSWMNWVRQAPGQGLEWMGRIYSGDGDAIYNQKFQGRVTITADESTSTAYMELSSLRSEDTAVYYCAREGKTGDLLLRSWGQGTLVTVSS
VL: DIVMTQSPDSLAVSLGERATINCRASKSVSTSIYSYMHWYQQKPGQPPKLLIKYASYLESGVPDRFSGSGSGTDFTLTISSLQAEDVAVYYCEHSREFPFTFGQGTKLEIK
notes: human constant region
  ELISA data: 0.643

B7: CD81K04 HC GG-03-hVH_1_69 / LC GG-02-hVK_4_1 (antibody, V domains shown)
VH: QVQLVQSGAEVKKPGSSVKVSCKASGYTFSSSWMNWVRQAPGQGLEWMGRIYSGDGDAIYAQKFQGRVTITADESTSTAYMELSSLRSEDTAVYYCAREGKTGDLLLRSWGQGTLVTVSS
VL: DIVMTQSPDSLAVSLGERATINCKSSKSVSTSIYSYMHWYQQKPGQPPKLLIYYASYRESGVPDRFSGSGSGTDFTLTISSLQAEDVAVYYCQHSREFPFTFGQGTKLEIK
notes: human constant region
  ELISA data: 0.44

B8: CD81K04 HC GG-03-hVH_1_69 / LC GG-03-hVK_4_1 (antibody, V domains shown)
VH: QVQLVQSGAEVKKPGSSVKVSCKASGYTFSSSWMNWVRQAPGQGLEWMGRIYSGDGDAIYAQKFQGRVTITADESTSTAYMELSSLRSEDTAVYYCAREGKTGDLLLRSWGQGTLVTVSS
VL: DIVMTQSPDSLAVSLGERATINCKSSKSVSTSIYSYLAWYQQKPGQPPKLLIYYASYRESGVPDRFSGSGSGTDFTLTISSLQAEDVAVYYCQHSREFPFTFGQGTKLEIK
notes: human constant region
  ELISA data: 0.165

B9: CD81K04 HC GG-03-hVH_1_69 / LC GG-04-hVK_4_1 (antibody, V domains shown)
VH: QVQLVQSGAEVKKPGSSVKVSCKASGYTFSSSWMNWVRQAPGQGLEWMGRIYSGDGDAIYAQKFQGRVTITADESTSTAYMELSSLRSEDTAVYYCAREGKTGDLLLRSWGQGTLVTVSS
VL: DIVMTQSPDSLAVSLGERATINCKSSKSVSTSIYSYLAWYQQKPGQPPKLLIYYASTRESGVPDRFSGSGSGTDFTLTISSLQAEDVAVYYCQHSREFPYTFGQGTKLEIK
notes: human constant region
  ELISA data: 0.07

B10: CD81K04 HC GG-03-hVH_1_69 / LC JA_GG-08-hVK_4_1 (antibody, V domains shown)
VH: QVQLVQSGAEVKKPGSSVKVSCKASGYTFSSSWMNWVRQAPGQGLEWMGRIYSGDGDAIYAQKFQGRVTITADESTSTAYMELSSLRSEDTAVYYCAREGKTGDLLLRSWGQGTLVTVSS
VL: DIVMTQSPDSLAVSLGERATINCKSSKSVSTSIYSYMHWYQQKPGQPPKLLIKYASYLESGVPDRFSGSGSGTDFTLTISSLQAEDVAVYYCEHSREFPFTFGQGTKLEIK
notes: human constant region
  ELISA data: 0.815

B11: CD81K04 HC GG-03-hVH_1_69 / LC JA_GG-09-hVK_4_1 (antibody, V domains shown)
VH: QVQLVQSGAEVKKPGSSVKVSCKASGYTFSSSWMNWVRQAPGQGLEWMGRIYSGDGDAIYAQKFQGRVTITADESTSTAYMELSSLRSEDTAVYYCAREGKTGDLLLRSWGQGTLVTVSS
VL: DIVMTQSPDSLAVSLGERATINCKSSKSVSTSIYSYMHWYQQKPGQPPKLLIKYASTRESGVPDRFSGSGSGTDFTLTISSLQAEDVAVYYCEHSREFPFTFGQGTKLEIK
notes: human constant region
  ELISA data: 0.832

B12: CD81K04 HC GG-03-hVH_1_69 / LC JA_GG-10-hVK_4_1 (antibody, V domains shown)
VH: QVQLVQSGAEVKKPGSSVKVSCKASGYTFSSSWMNWVRQAPGQGLEWMGRIYSGDGDAIYAQKFQGRVTITADESTSTAYMELSSLRSEDTAVYYCAREGKTGDLLLRSWGQGTLVTVSS
VL: DIVMTQSPDSLAVSLGERATINCRASKSVSTSIYSYMHWYQQKPGQPPKLLIKYASYLESGVPDRFSGSGSGTDFTLTISSLQAEDVAVYYCEHSREFPFTFGQGTKLEIK
notes: human constant region
  ELISA data: 0.691

B13: CD81K04 HC GG-04-hVH_1_69 / LC GG-02-hVK_4_1 (antibody, V domains shown)
VH: QVQLVQSGAEVKKPGSSVKVSCKASGYTFSSSWMNWVRQAPGQGLEWMGRIYSGDGDAIYNQKFQGRATITADESTSTAYMELSSLRSEDTAVYYCAREGKTGDLLLRSWGQGTLVTVSS
VL: DIVMTQSPDSLAVSLGERATINCKSSKSVSTSIYSYMHWYQQKPGQPPKLLIYYASYRESGVPDRFSGSGSGTDFTLTISSLQAEDVAVYYCQHSREFPFTFGQGTKLEIK
notes: human constant region
  ELISA data: 0.27

B14: CD81K04 HC GG-04-hVH_1_69 / LC GG-03-hVK_4_1 (antibody, V domains shown)
VH: QVQLVQSGAEVKKPGSSVKVSCKASGYTFSSSWMNWVRQAPGQGLEWMGRIYSGDGDAIYNQKFQGRATITADESTSTAYMELSSLRSEDTAVYYCAREGKTGDLLLRSWGQGTLVTVSS
VL: DIVMTQSPDSLAVSLGERATINCKSSKSVSTSIYSYLAWYQQKPGQPPKLLIYYASYRESGVPDRFSGSGSGTDFTLTISSLQAEDVAVYYCQHSREFPFTFGQGTKLEIK
notes: human constant region
  ELISA data: 0.162

B15: CD81K04 HC GG-04-hVH_1_69 / LC GG-04-hVK_4_1 (antibody, V domains shown)
VH: QVQLVQSGAEVKKPGSSVKVSCKASGYTFSSSWMNWVRQAPGQGLEWMGRIYSGDGDAIYNQKFQGRATITADESTSTAYMELSSLRSEDTAVYYCAREGKTGDLLLRSWGQGTLVTVSS
VL: DIVMTQSPDSLAVSLGERATINCKSSKSVSTSIYSYLAWYQQKPGQPPKLLIYYASTRESGVPDRFSGSGSGTDFTLTISSLQAEDVAVYYCQHSREFPYTFGQGTKLEIK
notes: human constant region
  ELISA data: 0.141

B16: CD81K04 HC GG-04-hVH_1_69 / LC JA_GG-08-hVK_4_1 (antibody, V domains shown)
VH: QVQLVQSGAEVKKPGSSVKVSCKASGYTFSSSWMNWVRQAPGQGLEWMGRIYSGDGDAIYNQKFQGRATITADESTSTAYMELSSLRSEDTAVYYCAREGKTGDLLLRSWGQGTLVTVSS
VL: DIVMTQSPDSLAVSLGERATINCKSSKSVSTSIYSYMHWYQQKPGQPPKLLIKYASYLESGVPDRFSGSGSGTDFTLTISSLQAEDVAVYYCEHSREFPFTFGQGTKLEIK
notes: human constant region
  ELISA data: 0.773

B17: CD81K04 HC GG-04-hVH_1_69 / LC JA_GG-09-hVK_4_1 (antibody, V domains shown)
VH: QVQLVQSGAEVKKPGSSVKVSCKASGYTFSSSWMNWVRQAPGQGLEWMGRIYSGDGDAIYNQKFQGRATITADESTSTAYMELSSLRSEDTAVYYCAREGKTGDLLLRSWGQGTLVTVSS
VL: DIVMTQSPDSLAVSLGERATINCKSSKSVSTSIYSYMHWYQQKPGQPPKLLIKYASTRESGVPDRFSGSGSGTDFTLTISSLQAEDVAVYYCEHSREFPFTFGQGTKLEIK
notes: human constant region
  ELISA data: 0.918

B18: CD81K04 HC GG-04-hVH_1_69 / LC JA_GG-10-hVK_4_1 (antibody, V domains shown)
VH: QVQLVQSGAEVKKPGSSVKVSCKASGYTFSSSWMNWVRQAPGQGLEWMGRIYSGDGDAIYNQKFQGRATITADESTSTAYMELSSLRSEDTAVYYCAREGKTGDLLLRSWGQGTLVTVSS
VL: DIVMTQSPDSLAVSLGERATINCRASKSVSTSIYSYMHWYQQKPGQPPKLLIKYASYLESGVPDRFSGSGSGTDFTLTISSLQAEDVAVYYCEHSREFPFTFGQGTKLEIK
notes: human constant region
  ELISA data: 0.762

B19: CD81K04 HC GG-05-hVH_1_18 / LC GG-02-hVK_4_1 (antibody, V domains shown)
VH: QVQLVQSGAEVKKPGASVKVSCKASGYTFSSSWMNWVRQAPGQGLEWMGRIYSGDGDAIYAQKLQGRVTMTTDTSTSTAYMELRSLRSDDTAVYYCAREGKTGDLLLRSWGQGTLVTVSS
VL: DIVMTQSPDSLAVSLGERATINCKSSKSVSTSIYSYMHWYQQKPGQPPKLLIYYASYRESGVPDRFSGSGSGTDFTLTISSLQAEDVAVYYCQHSREFPFTFGQGTKLEIK
notes: human constant region
  ELISA data: 0.664

B20: CD81K04 HC GG-05-hVH_1_18 / LC GG-04-hVK_4_1 (antibody, V domains shown)
VH: QVQLVQSGAEVKKPGASVKVSCKASGYTFSSSWMNWVRQAPGQGLEWMGRIYSGDGDAIYAQKLQGRVTMTTDTSTSTAYMELRSLRSDDTAVYYCAREGKTGDLLLRSWGQGTLVTVSS
VL: DIVMTQSPDSLAVSLGERATINCKSSKSVSTSIYSYLAWYQQKPGQPPKLLIYYASTRESGVPDRFSGSGSGTDFTLTISSLQAEDVAVYYCQHSREFPYTFGQGTKLEIK
notes: human constant region
  ELISA data: 0.187

B21: CD81K04 HC GG-05-hVH_1_18 / LC JA_GG-08-hVK_4_1 (antibody, V domains shown)
VH: QVQLVQSGAEVKKPGASVKVSCKASGYTFSSSWMNWVRQAPGQGLEWMGRIYSGDGDAIYAQKLQGRVTMTTDTSTSTAYMELRSLRSDDTAVYYCAREGKTGDLLLRSWGQGTLVTVSS
VL: DIVMTQSPDSLAVSLGERATINCKSSKSVSTSIYSYMHWYQQKPGQPPKLLIKYASYLESGVPDRFSGSGSGTDFTLTISSLQAEDVAVYYCEHSREFPFTFGQGTKLEIK
notes: human constant region
  ELISA data: 0.881
